Test system: advanced NSCLC patients
Assay: Toxicity: grade3-4 hypertension versus genotype, E4599 subset
Type: in vivo, human
Settings: bevacizumab arm
Source text: The problem, however, is that there is hardly any power to do this. There were a total of 30 cases on E4599 who reported grade3-4 hypertension of any attribution type on this study. Once these cases are merged with the correlatives dataset, there is an overlap of only 7 hypertension cases in the correlative study. The distribution of hypertension versus genotype for these VEGF polymorphisms, as well as the WNK1 polymorphisms is as follows: […]

## Bevacizumab
VEGF634 CC
  HTN (number of patients, grade3-4 hypertension): 1
  No HTN (number of patients): 10
VEGF634 GC
  HTN (number of patients, grade3-4 hypertension): 0
VEGF634 GG
  HTN (number of patients, grade3-4 hypertension): 6
VEGF1498 CC
  No HTN (number of patients): 18
VEGF1498 CT
  HTN (number of patients, grade3-4 hypertension): 1
  No HTN (number of patients): 21
VEGF1498 TT
  No HTN (number of patients): 17
WNK1-2158501 GG (so in the source)
  HTN (number of patients, grade3-4 hypertension): 1
WNK1-2158501 TT (so in the source)
  No HTN (number of patients): 18
WNK1-110644560 GG
  HTN (number of patients, grade3-4 hypertension): 0
  No HTN (number of patients): 7
WNK1-110644560 GT
  HTN (number of patients, grade3-4 hypertension): 1
WNK1-110644560 TT
  HTN (number of patients, grade3-4 hypertension): 6
  No HTN (number of patients): 18

Reference: US20120100134A1, “GENETIC VARIANTS IN ANGIOGENESIS PATHWAY ASSOCIATED WITH CLINICAL OUTCOME” (University of Southern California, priority 2009, published 2012)
